Molecular target: Factor Xa
Assay: SPR; FXa immobilised by amine coupling on a CM5 chip (1455.7 RU); Lofaxin as analyte at 1.95-31.25 nM; Biacore T100, 25°C, HBS-P buffer (10 mM HEPES, 150 mM NaCl, 0.005% P20, pH 7.4); global fit to the 1:1 Langmuir model

recombinant Lofaxin (Lufaxin-like salivary protein of Bichromomyia olmeca) (natural protein)
Kd: 1.83 nM

Reference: publication PMC4943706
